Experimental data as given in PMC4183573, “Cyclophilin A Associates with Enterovirus-71 Virus Capsid and Plays an Essential Role in Viral Infection as an Uncoating Regulator” (PLoS Pathogens, 2014).
Where no end group is shown, it is not given here.

B1: GST-1P: H-I loop of EV71 VP1 with the S243P substitution (239-GSSKPKYPL-247) fused to GST (peptide)
chain: GSSKPKYPL
modifications: also: fused to GST
notes: H-I loop of the capsid protein VP1 of EV71, residues 239-247, with S243P; numbers count on: the VP1 protein, not the polypeptide; source: E. coli BL21 (DE3), held on glutathione-sepharose (GST column) beads; not shown: GST, N-terminal, kept
B2: GST-1S: peptide of the H-I loop of EV71 VP1 (239-GSSKSKYPL-247) fused to GST (peptide)
chain: GSSKSKYPL
modifications: also: fused to GST
notes: H-I loop of the capsid protein VP1 of EV71, residues 239-247; numbers count on: the VP1 protein, not the polypeptide; source: E. coli BL21 (DE3), held on glutathione-sepharose (GST column) beads; not shown: GST, N-terminal, kept

Biological target: T1, recombinant human CypA without a GST tag (human, UniProt P62937 1-165)
T1 construct: cyclophilin A (CypA), human, cloned into pGEX-6p-1; source: E. coli BL21 (DE3), purified (GST column, PreScission Protease, Superdex-75); not shown: GST, N-terminal, cleaved
Experiment: pull-down; recombinant human CypA (200 µg) with 50 µl glutathione-sepharose beads holding GST, GST-1S or GST-1P (200 µg) in 300 µl buffer (50 mM Tris-HCl pH 8.0, 150 mM NaCl, 1% Nonidet P-40, 2 mM EDTA), overnight at 4°C; eluted with GSH; blot for GST and CypA
Details: both partners purified

Binder | binding result
B1 | binds
B2 | binds
